Experimental data as given in patent US9890400B2, “Method of production of 2,4-dihydroxybutyric acid” (ADISSEO FRANCE S.A.S., priority 2012, dated 2018).

System: CC(C)(COP(=O)(O)OP(=O)(O)OC[C@H]1O[C@@H](n2cnc3c(N)ncnc32)[C@H](O)[C@@H]1OP(=O)(O)O)[C@@H](O)C(=O)NCCC(=O)NCCSC(=O)CCC(=O)O
Test: Malyl-CoA reductase activity, reductive sense (Assay 1)
Assay type: biochemical, Porphyromonas gingivalis W83
Details: other: reductive sense, succinyl-CoA added directly, NADPH, pH 7.5, 37° C.
Experimental: NCBI references of the utilized mcr and sucD protein sequences, and the references for the corresponding natural and synthetic DNA sequences are listed in Table 2.
Expression and purification of Pg-SucD was carried out as described in Example 1 using plasmid pET28-Pgi-sucD.
Malyl-CoA reductase activity was assayed in the reductive and in the oxidative sense of the reaction employing Assay 1 or Assay 2, respectively.
Assay 1 (Reaction Scheme): glyoxylate+acetyl-CoA→malyl-CoA+acetate Malyl-CoA lyase: (L)-Malyl-CoA+NADPH→(L)-Malate semialdehyde+Coenzyme A+NADP Malyl-CoA reductase: Assay 2 (Reaction Scheme): (L)-Malate semialdehyde+Coenzyme A+NADP→(L)-Malyl-CoA+NADPH The reaction mixture according to Assay 1 contained 50 mM MOPS/KOH (pH 7.5), […], and appropriate amounts of purified malyl-CoA reductase or cell extract. Reactions were started by adding glyoxylate. Enzymatic assays were carried out at 37° C. in 96-well flat bottomed microtiter plates in a final volume of 250 μL. The reactions were followed by the characteristic absorption of NADPH at 340 nm (εNADPH=6.22 mM^−1 cm^−1) in a microplate reader (BioRad 680XR).

Porphyromonas gingivalis succinyl-CoA reductase (Pg-SucD), wild type, SEQ ID No. 10 (Porphyromonas gingivalis W83)
Km: 1000 µM | Vmax: 1 µmol/min/mg
